Data from patent US12480043B2, “Red-light-mediated nucleic acid anchoring-type fluorescent probe, and preparation method therefor and use thereof” (SOOCHOW UNIVERSITY, priority 2020, dated 2025).

Columns and labels:
[1] = TEM and particle size of probe in aqueous solution; type: physicochemical; details: TEM
[2] = UV visible near-infrared and fluorescence spectra in aqueous solution; type: physicochemical; details: 10 μM in ultrapure water
[3] = 10 μM
4T1 cells = test: Cytotoxicity of probes co-incubated with MB and cells
[4] = tested on: 4T1 mice breast cancer tumor
Procedure: The control group probe CR and the experimental group probe f-CR were treated with PBS to a concentration of […] 200 μL. MB (PBS, 0.1) was injected into the mouse tumor 0.5 hours in advance by intratumor injection, followed by tail vein injection of CR or f-CR.

SMILES	assembly or nanostructure [1]	maximum absorption [2]	maximum emission [2]	solubility in ultrapure water [3]	toxicity without illumination (4T1 cells; 100, 50, 20, 10, 1, 0.1 μM + MB 0.1 μM, 4T1 cells, 12 hours)	cytotoxicity after illumination (4T1 cells; probe + MB 0.1 μM, 4T1 cells 12 hours, 660 nm 50 mW/cm 2 3 minutes, further cultured 48 hours)	enrichment in the tumor ([4]; 12 hours after probe injection, f-CR+MB+660 nm, tumor sections and organ homogenates)	retention time in vivo (tumor, IVIS) ([4]; MB intratumor 0.5 hours in advance, probe 100 Mm 200 μL tail vein, 660 nm 50 mW/cm^2 3 minutes after 1 hour)
CC[N+]1=C(/C=C/C=C/C=C/C=C2\N(CCCCCC(=O)NCCCCC3NC(=O)C(Cc4ccccc4)NC(=O)C(CC(=O)O)NC(=O)CNC(=O)C(CCCNC(=N)N)NC3=O)c3ccc(S(=O)(=O)O)cc3C2(C)C)C(C)(C)c2cc(S(=O)(=O)O)ccc21 (stereo not drawn) [CR]	no assembly or nanostructure was found	747 nm	789 nm	completely soluble	–	–	–	–
CC[N+]1=C(/C=C/C=C/C=C/C=C2\N(CCCCCC(=O)NC(CCCCNC(=O)CCc3ccco3)C(=O)NCCCCC3NC(=O)C(Cc4ccccc4)NC(=O)C(CC(=O)O)NC(=O)CNC(=O)C(CCCNC(=N)N)NC3=O)c3ccc(S(=O)(=O)O)cc3C2(C)C)C(C)(C)c2cc(S(=O)(=O)O)ccc21 (stereo not drawn) [f-CR]	–	–	–	completely soluble	neither CR nor f-CR showed significant toxicity	exhibited certain cytotoxicity	much higher than that of other groups	much longer than that of other groups
